Assay: yeast display, Sf9 membrane polyspecificity reagent, FACS + sequencing; frameworks hold sequencing errors
Procedure, shortened: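 Genes from sorted yeast were amplified by colony PCR, read by MiSeq 2 × 250 sequencing and filtered on CDR length. These cells carried a synthetic nanobody library in Saccharomyces cerevisiae BJ5465 and were sorted by FACS into low and high (top ~1%) gates on anti-HA and streptavidin fluorescence. Polyreactivity is labelled according to the gate of origin.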

Sequence	polyreactivity (PSR sort gate)
LQLVESGGGLVQAGGSLRLTSAASGSTFHRYAMGWYRQSPGKERELVAAISSRGGSTYYADSVKGRFTISRDNAKYTVYLQMNSLKPEDTAVYYCAVYGGRSGVPFDSMDYWGQGTQVTVTS	high polyreactivity
LVHLQESGGGLVQAGGSLRLSCAASGTISPAGYMGWYRPAPGKERELVASINVGGSTNYADSVKGRFTISRDNAKNTVYLQLNCLKPEVNAVYYCAVWGRYRLQLSYWGQGTQVTVSS	low polyreactivity
LVLLVESGGGLVQAGGSLRLSCAASGFSFACYGMGWYRQAPGNDRELVAALSWSGGRTYYADSVTGRFTISRDNAKNTVYLQMNSLKPEDTAVDYCYAYWNPASKYDFWGQGTQVTVTS	high polyreactivity
LVQAGGSLRLSCAASVNTSGKNAMGWYRQAPGKERELVAAISSAGSTNYADSVKGRFTISRDNAKNTVYLQMNSLKPEDTAVYYCNAVRRLATVKTYRFNYWGQGTQVTVSS	low polyreactivity
LVQLQDSGDGLVQAGGSLRLSCAASGNIFDADIKGWYRQAPGKERELVASIGIGGTTYYADSVKGRFSISRDNEKNTVYLQMNSLKPEDTAVYYCAARYLYYAYSYWGQGTQVTVSS	low polyreactivity
LVQLQESGGGLVQAGGSLRLSCAASGTISPGGNMGWYRQAPGKERELLASINVGGSTNYADSVKGRFTISRDNAINTVFLQMNSLKPDDNAVFYCAVWGRNRLQLSYWGQGTQVTVSS	low polyreactivity
LVQLVESGGGLVQAGGSLRLSCAASGIIFRFYDMGWYRQAPGKERELVAAISWDGTSTYYADSVKGRFTISRDNAKNTVSLQMNSQKPEDTAVYYCAADWVGSPWWYLWYGYWGQGTQVTVSS	high polyreactivity
LVQLVESGGRLVQAGGSLRLTCAATGSIFDGNAKGWYRQAPGKDRELVADISRGGSTYYADSVKGRFTISSDNAKNTVYFQLNSLKPEDTAVYDCTVEFFFWPYEYGYWGQGTQVTVSS	low polyreactivity
LVQLVESGVGLVHAGRSLRLSCAASGSIFPYYTMGWYRPAPGKERELVAAISGSGGSTYYADSVKGRFTISRDNAKNTVYLQMNSLKPEYTAVYYCAAYRRTWFDYWGQGTQVTVSS	high polyreactivity
LVQQVESGGGLVQAVGTLRISCAASGQILYSYAMGWYRQAPGKERELVAAITGGVSTNYADSVKGRFTISRDNAKNTVYLQMNSLKPEDTAVYYCNVELWEYSYIDEYWGQGTQLTVSS	low polyreactivity
PDQLVESGGGLVQAGGSLRLSCAASGLNFYDNMGWYIQATGKERELVSAISSSGGSTSYADSVKGRFTISRDNAKNTVYLQMNSLKPEDTAVYYCAADSSPAYLGFVGFDYWGHGTQVTVSS	low polyreactivity
PLQLVESGGGLVQAGGSLRLSCAASGRTFRATTMGWYRQAPGKERELVAAISHSGGSTYYADSVKGRFTISRDNAKNTVYLQMYSLKPEDTAVYYCATDGGSYSWASPRVDYWGQGTQVTVSS	low polyreactivity
PVQLVDSGGGLVQAGGSLRLSCAASGSIFYRNALGWYRQAPGKERELVAAISGRGGSTNYADSVKGRFTISRDNAKNTVYLQMNSLKPEDTAVYYCNRYGVANILVRGGYWGQGTQVTVSA	high polyreactivity
PVQLVESGGGLVQAGGPLRLSCAASGFNITSYVMGWYRPAPGKERELVAAISAGGGSTYYADSVKGRFTISRDNAKNTVYLQMNSLIPDDTAVYYCAADPLYEQIYYAIYHYNDGYDYWGQGTQVTVSS	high polyreactivity
PVQLVESGGGLVQAGGSHRLSCAASGSIFYFNAMGWYRQAPGKERELVAVITDRGSTYYSDSVKGRFTISRDNAKNTVYLQMNSLKPEDTAVYYCAAQTPGVYLRQIGGYYYWGQGTQVTVSS	low polyreactivity
PVQLVESGGGLVQAGGSLPLSCAASGRTFPFNAMRWYRQAPGKERELVATINYRGGSTYYADSVKGRFTISRDNAKNTVYLQMNSLKPEDTAVYYCAAGKIGRYHYDYWGQGTQVTVSS	high polyreactivity
PVQLVESGGGLVQAGGSLRLSCAACGGIFPGNAMGWYRQAPGKVRELVATISYSGGSTYYADSVKGRLTISRDNAKNTVYLQMNSLKPEATAVYYCAARGYKPTRSRRTEYGYWGQGTQVTVSS	high polyreactivity
PVQLVESGGGLVQAGGSLRLSCAASGFTFANYAMGWYRQAPGKERELVAAISRGGTSTYYADSVKGRFTISRDNAKNTVYFQMNSLKPEDTEVYFCNAVKVGYSLYDYWGQGTQVTVSS	high polyreactivity
PVQLVESGGGLVQAGGSLRLSCAASGITIYYYGMGWYRQPPGKERELVAAITTGVNTNYADSVKGRFTISRDNAKITVYLQMNSLKPEDTAVYYCAAEYRIPYFFTYGYWGQGTQVTVSS	high polyreactivity
PVQLVESGGGLVQAGGSLRLSCAASGRIFSSYTMGWNIQAPGKERELVAAISWRGGSTYYADSVKGRFTISRDNAKNTVYLLMNSLKPEDTAVYYCAADSRSHPGDYWGHGTQVTVSS	low polyreactivity
PVQLVESGGGLVQAGGSLRLSCAASGSTFAYNAMGWYRQAPGKERELVAAISWSGGTTYYADSVKGRFTISPDNAKNPVYLQMNSLKPEDTAVYYCAADVYLNRRQRMYYWGQGTQVTVSS	high polyreactivity

Sequence	polyreactivity (PSR sort gate)
PVQLVESGGGLVQAGGTLRLSCDATGITFKLNAMGWYRQAPGKERELVAAITSTGGSTYYADSVKGRFTISRDNAKNTVYLQMNSLNPEDTAVYYCAADRYSYIFYYYWSYDYWGQCTQVTVSS	high polyreactivity
PVQLVESGGGVVQAGGSLRVSCAASGSIFYVYAMGWYRQAGGKEWELVAAINPSGGSTFYADSVKGRFTISRDNAKTTDYLQMNSLTPEHTAVYYCAAERYRYRSTDTMGYWGQGTQVTVSS	low polyreactivity
PVQLVESGGVLVQAGGILRLSCAASGFTFYLYGMGWYRRAPGKERELVAAISRSGGSTYYADSVKGRFTISRDNAKNTVYLQMNSLKPEDPAVYACAVDKQGSRRRIISDEMYYWGQGTQVTVSS	high polyreactivity
PVQLVESGGVLVQAGGSLRLSCAASGFTFWLYAMGWYRQAPGNEREFVAAISPSGGSTYADSVKGRFTLSRDNAKNTVYLPMNRLKPEDTAVYYCNDGYLLYYDYHLFYWGQGTQLTVSS	low polyreactivity
PVQLVETGGGLVQAGGSLRLSCAASGRTFYRYAMGWYRQAPGKERELVAAITRRVDSTSYADSVKGRFTISRDNAKNTVYLQMNSLKPEDTAVYYCATLVQGSVYGVYGGGYWGQGTQVTVSS	low polyreactivity
QAQLVESGGGLVQAGGSLRLSSAASGFIFWGNAMGWYRQAPGKERELVAGIRSLGGTTSYADSVKGRFTISRDNAKNTVYLQMNSLKPEDTAVYYCAAGYGAEFDYWGQGTQVTVSS	low polyreactivity
QDHLVESGEGLVQAGGSLRLSCAASGFVFAYYTMGWYRTAPGKERELVAAISRGGGRTYYADSVKGRFTISRDNAKNTVYLQMNSLKPEDTAVYYCAARNGPSIKFAVTGMDYWGQGTQVTVSS	high polyreactivity
QDHLVESGGGLVQAGGSLRLSCAASGSPFPSYAMGWYRQAPGKERELVAAINSGGGTTYADSVQGRFTISRDKAKNTVYLQMNSLKPEDTAVYYCARGPLSWHSYVEAEYGYWGQGTQVTVSW	low polyreactivity
QDHLVESVGGLVQAGRSLRLTCAASGGTFYYKTMGWYRQAPGKESQLVAAITSGTSTNYADSVKGRFTISRDNAKNTVYLQMNSLKPEDTAVYYCAADPDADDPRRGYDYWGQGTQVTVSS	low polyreactivity
QDKLVESAGGLVQAGGSLRLSCADSGSIFPFNAMALNRQATGKVREMVASITSGGTTYYADSLKGRFTISRDNAKNTVYLQMNSLKPEDTAVYYFAGDWVWRVLNSYGVRYDYWGQGTQVTVSS	low polyreactivity
QDKLVESGGGLVQAGASLRLTCAASGLIIYRNAMGWYIQAPGKERELVATISRRGGRTYYADSVKGRFTISRDNAKNNVYLQMNSLKPEDTAVYYCIADDYRSRGGYDSWGQGTQVTVSS	high polyreactivity
QDKLVESGGGLVQAGGSLRLSCAASGSILGGYAMGWNRPAPGKAREFVAAISRRGASTFYADSVKGRFTISRDNAKNTVYLQMNCLKPEDTAVYYCNARAYGRIDGHSATFGYWGQGTQVTVSS	high polyreactivity
QDKLVESGGGLVQAGGSLRLSCAPSGSIFYGYAMGWYRQAPGKESELVAAMSSTGGTTYYADSVKGRFTISRDNAKNTVYLQMNSQKPEDTAVYYCAKRGRTWRYPFDYWGQGTQVTVSS	high polyreactivity
QDQHVESGGGLVQAGGSLRLSCAASGFTFPLKAMGWSRQAPGKERELVAVINYSDGSTYYADSVKGRFSISRDNAKNTVYLQMNSLTPEDTAVYYCAARYYTTYYWGQGTQVTVSS	high polyreactivity
QDQHVESGGGLVQAGGSLRLSCAASGIIFWWYDMGWFRQAPGKERELVAAISTGSRTNYADSVKGRFTISRDNAKNTVYLQMNSLKPEDTAVYYCAGEWVGFSGYYGSGYEMDYWGQGTQVTVSS	low polyreactivity
QDQHVESGGGLVQAGGSLRLSCAASGIIFYRYAMGWYRQAPGKERELVAAIRRSGGSTFYADSVKGRFTISRDNAKNTVYLQMNCLKPVDTAVYYCAAVYTGDPYGYWGQGTQVTVSS	high polyreactivity
QDQHVESGGGLVQAGGSLRLSCAASGITFNKYAMGWYRQAPGKERELVAAISFSGGSTYYADSVKGRFTISRDNAKNTVYLQMNSLKPEVTAVYYCAAVWGYVIWVDTAVYREYDYWGQGTQVTVSS	high polyreactivity
QDQHVESGGGLVQAGGSLRLSCAASGSNFVINAMGWYRQAPGKEREWVAAITSSGGSTYYADSVKGRFTISRDNAKNTVYLQMNSLKPEDTAVYYCAAYVRTAFGRMNYWGQGTLVTVSS	high polyreactivity
QDQHVESGGGLVQAGGSLRLSCAASGSTFKIYAMGWYRQPHGKESELVARITGRGGSTYYADSVKGRFTISRDNAKNTVYLQMNSLKPEDTAVYYCAARVYTYYDDLHKRYYWGQGTQVTVSS	high polyreactivity
QDQHVESGGGLVQAGGSLRLSCAASGSTFPYYAMGWYRQAPGKERELVAAITSSGGSTYYADSVKGRFTISRVNAKNTVYLQMNSLKPEDTAVYYCANGYGPYRQMNYWGQGTQVTVSS	low polyreactivity

— the nanobody polyreactivity screen of Harvey et al. (2022)
